Measurements reported in US20240409634A1 (Janssen / Centocor, published 2024).

B1: scFv-VHH bispecific molecule JL2 x 5D3 (scFv (VL-L-VH)-L-VHH with C-tag) (bispecific antibody)
chain: DIVMTQSPLSLPVTPGEPASISCRSSQSLLHSDGYNYLDWYLQKSGQSPQLLIYLGSYRASGVPDRFSGSGSGTDFTLKISRVEAEDVGIYYCMQVLQTPWTFGQGTKVEIKGGSEGKSSGSGSESKSTGGSEVQLVESGGGLVQPGGSLRLSCVVSGFTFSSYWMTWVRQAPGKGLEWVANIKQDGSERYYVDSVKGRFTISRDSAKNSLYLQMNSLRAEDTAVYYCAREVGYNWNQGGYFDYWGQGTLVTVSSGGGGSEVQLVESGGGLVQAGGSLRLSCAASGRPFSNYAMGWFRQAPGKEREFVTVISWSGGSTYYADSVKGRFTISRDNAKNTVYLQMNSLKPEDTAVYYCAAQFSGASTVVAGTALDYDYWGQGTRVTVSSAAAEPEA
B2: scFv-VHH bispecific molecule JL6 x 5D3 (scFv (VL-L-VH)-L-VHH with C-tag) (bispecific antibody)
chain: QSVLTQPPSASGTPGQRVTISCSGSSSNIGSNPVNWYQQLPGTAPKLLIYSNNQRPSGVPDRFSGSKSGTSASLAISGLQSEDEADYFCAAWDDSLNGPVFGGGTKLTVLGGSEGKSSGSGSESKSTGGSQVQLQESGPGLVKPSETLSLTCTVSGGSISSYYWGWIRQPPGKGLEWIGYIYYSGSTNYNPSLKSRVTISVDTSKNQFSLKLSSVTAADTAVYYCARMWEILGFDPWGQGTLVTVSSGGGGSEVQLVESGGGLVQAGGSLRLSCAASGRPFSNYAMGWFRQAPGKEREFVTVISWSGGSTYYADSVKGRFTISRDNAKNTVYLQMNSLKPEDTAVYYCAAQFSGASTVVAGTALDYDYWGQGTRVTVSSAAAEPEA
B3: scFv-VHH bispecific molecule JL1 x 6H4 (scFv (VL-L-VH)-L-VHH with C-tag) (bispecific antibody)
chain: DIVMTQSPLSLPVTPGEPASISCKSSQSLLFSNGYKFLDWYLQRPGQSPQLLIYLGSYRASGVPDRFSGSGSGTDFTLKISRVEAEDVGLYYCMQALQTPPTFGGGTKVEIKGGSEGKSSGSGSESKSTGGSEVQLVESGGGLVQPGGSLKVSCEASGFTFSVSAIHWVRQASGKGLEWIGRIRSKGNSYATAYAASVKGRFTISRDDSKNTAYLQMDSLKTEDTAVYYCTRHNDKWNYYGLDVWGQGTTVTVSSGGGGSEVQLVESGGGLVQAGGSLRLSCAASGRPFSNYGMGWFRQAPGKKREFVAGISWSGGSTDYADSVKGRFTISRDNAKNTVYLQMNSLKPEDTAVYYCAAVFSGAETAYYPSDDYDYWGQGTQVTVSSAAAEPEA
B4: scFv-VHH bispecific molecule JL1 x 5D3 (scFv (VL-L-VH)-L-VHH with C-tag) (bispecific antibody)
chain: DIVMTQSPLSLPVTPGEPASISCKSSQSLLFSNGYKFLDWYLQRPGQSPQLLIYLGSYRASGVPDRFSGSGSGTDFTLKISRVEAEDVGLYYCMQALQTPPTFGGGTKVEIKGGSEGKSSGSGSESKSTGGSEVQLVESGGGLVQPGGSLKVSCEASGFTFSVSAIHWVRQASGKGLEWIGRIRSKGNSYATAYAASVKGRFTISRDDSKNTAYLQMDSLKTEDTAVYYCTRHNDKWNYYGLDVWGQGTTVTVSSGGGGSEVQLVESGGGLVQAGGSLRLSCAASGRPFSNYAMGWFRQAPGKEREFVTVISWSGGSTYYADSVKGRFTISRDNAKNTVYLQMNSLKPEDTAVYYCAAQFSGASTVVAGTALDYDYWGQGTRVTVSSAAAEPEA
B5: scFv-VHH bispecific molecule JL5 x 5D3 (scFv (VL-L-VH)-L-VHH with C-tag) (bispecific antibody)
chain: QSVLTQPPSASGTPGQRVTISCSGSSSNIGSNIVNWYQQFPGTAPKLLIYSNNQRPSGVPDRVSGSKSGTSASLAISGLQSEDEADYYCAAWDDSLNGPVFGPGTKVTVLGGSEGKSSGSGSESKSTGGSQVQLQESGPGLVKPSETLSLTCSVSGASIRNYYWSWIRQTAGKGLEWLGHIYSTGNIHYNPSLKSRVTMSVDTSNNQFSLKLRSVTAADTAVYYCARDNGAALFDYWGQGTLVTVSSGGGGSEVQLVESGGGLVQAGGSLRLSCAASGRPFSNYAMGWFRQAPGKEREFVTVISWSGGSTYYADSVKGRFTISRDNAKNTVYLQMNSLKPEDTAVYYCAAQFSGASTVVAGTALDYDYWGQGTRVTVSSAAAEPEA
B6: scFv-VHH bispecific molecule JL5 x 6H4 (scFv (VL-L-VH)-L-VHH with C-tag) (bispecific antibody)
chain: QSVLTQPPSASGTPGQRVTISCSGSSSNIGSNIVNWYQQFPGTAPKLLIYSNNQRPSGVPDRVSGSKSGTSASLAISGLQSEDEADYYCAAWDDSLNGPVFGPGTKVTVLGGSEGKSSGSGSESKSTGGSQVQLQESGPGLVKPSETLSLTCSVSGASIRNYYWSWIRQTAGKGLEWLGHIYSTGNIHYNPSLKSRVTMSVDTSNNQFSLKLRSVTAADTAVYYCARDNGAALFDYWGQGTLVTVSSGGGGSEVQLVESGGGLVQAGGSLRLSCAASGRPFSNYGMGWFRQAPGKKREFVAGISWSGGSTDYADSVKGRFTISRDNAKNTVYLQMNSLKPEDTAVYYCAAVFSGAETAYYPSDDYDYWGQGTQVTVSSAAAEPEA
B7: scFv-VHH bispecific molecule JL4 x 5D3 (scFv (VL-L-VH)-L-VHH with C-tag) (bispecific antibody)
chain: DVVMTQSPLSLPVTLGQPASISCRSSQSLVYSDGNTYLNWFQQRPGQSPRRLIYKVSTRDSGVPDRFSGSGSGTDFTLKISRVEAEDVAVYYCLQGTHWPWTFGQGTKVEIKGGSEGKSSGSGSESKSTGGSQVQLVESGGGLVQPGGSLRLSCAASGITFSNYWMSWVRQAPGKGLEWVASIKRDGSDKYYVDSVKGRFTISRDNAKNSLSLQMHSLRAEDTAVYYCAKGEFDYWGQGTLVTVSSGGGGSEVQLVESGGGLVQAGGSLRLSCAASGRPFSNYAMGWFRQAPGKEREFVTVISWSGGSTYYADSVKGRFTISRDNAKNTVYLQMNSLKPEDTAVYYCAAQFSGASTVVAGTALDYDYWGQGTRVTVSSAAAEPEA
B8: scFv-VHH bispecific molecule JL6 x 6H4 (scFv (VL-L-VH)-L-VHH with C-tag) (bispecific antibody)
chain: QSVLTQPPSASGTPGQRVTISCSGSSSNIGSNPVNWYQQLPGTAPKLLIYSNNQRPSGVPDRFSGSKSGTSASLAISGLQSEDEADYFCAAWDDSLNGPVFGGGTKLTVLGGSEGKSSGSGSESKSTGGSQVQLQESGPGLVKPSETLSLTCTVSGGSISSYYWGWIRQPPGKGLEWIGYIYYSGSTNYNPSLKSRVTISVDTSKNQFSLKLSSVTAADTAVYYCARMWEILGFDPWGQGTLVTVSSGGGGSEVQLVESGGGLVQAGGSLRLSCAASGRPFSNYGMGWFRQAPGKKREFVAGISWSGGSTDYADSVKGRFTISRDNAKNTVYLQMNSLKPEDTAVYYCAAVFSGAETAYYPSDDYDYWGQGTQVTVSSAAAEPEA
B9: scFv-VHH bispecific molecule JL3 x 5D3 (scFv (VL-L-VH)-L-VHH with C-tag) (bispecific antibody)
chain: QSVLTQPPSASGTPGQRVTISCSGSSSNIGSNIVNWYQQFPGTAPKLLLYSDNQRPSGVPDRFSGSKSGTSASLAISGLQSEDEADYYCAAWDDSLNGPVFGTGTKVTVLGGSEGKSSGSGSESKSTGGSQVQLQESGPGLVKPSETLSLTCSVSGGSIRNYYWSWIRQSAGKELEWFGHIFSTGHINYDSSLKSRVTMSVDTSNNQFSLKLRSVTAADTAVYYCARDNGAALFDFWGQGTLVTVSSGGGGSEVQLVESGGGLVQAGGSLRLSCAASGRPFSNYAMGWFRQAPGKEREFVTVISWSGGSTYYADSVKGRFTISRDNAKNTVYLQMNSLKPEDTAVYYCAAQFSGASTVVAGTALDYDYWGQGTRVTVSSAAAEPEA
B10: scFv-VHH bispecific molecule JL4 x 6H4 (scFv (VL-L-VH)-L-VHH with C-tag) (bispecific antibody)
chain: DVVMTQSPLSLPVTLGQPASISCRSSQSLVYSDGNTYLNWFQQRPGQSPRRLIYKVSTRDSGVPDRFSGSGSGTDFTLKISRVEAEDVAVYYCLQGTHWPWTFGQGTKVEIKGGSEGKSSGSGSESKSTGGSQVQLVESGGGLVQPGGSLRLSCAASGITFSNYWMSWVRQAPGKGLEWVASIKRDGSDKYYVDSVKGRFTISRDNAKNSLSLQMHSLRAEDTAVYYCAKGEFDYWGQGTLVTVSSGGGGSEVQLVESGGGLVQAGGSLRLSCAASGRPFSNYGMGWFRQAPGKKREFVAGISWSGGSTDYADSVKGRFTISRDNAKNTVYLQMNSLKPEDTAVYYCAAVFSGAETAYYPSDDYDYWGQGTQVTVSSAAAEPEA
B11: scFv-VHH bispecific molecule JL3 x 6H4 (scFv (VL-L-VH)-L-VHH with C-tag) (bispecific antibody)
chain: QSVLTQPPSASGTPGQRVTISCSGSSSNIGSNIVNWYQQFPGTAPKLLLYSDNQRPSGVPDRFSGSKSGTSASLAISGLQSEDEADYYCAAWDDSLNGPVFGTGTKVTVLGGSEGKSSGSGSESKSTGGSQVQLQESGPGLVKPSETLSLTCSVSGGSIRNYYWSWIRQSAGKELEWFGHIFSTGHINYDSSLKSRVTMSVDTSNNQFSLKLRSVTAADTAVYYCARDNGAALFDFWGQGTLVTVSSGGGGSEVQLVESGGGLVQAGGSLRLSCAASGRPFSNYGMGWFRQAPGKKREFVAGISWSGGSTDYADSVKGRFTISRDNAKNTVYLQMNSLKPEDTAVYYCAAVFSGAETAYYPSDDYDYWGQGTQVTVSSAAAEPEA
B12: scFv-VHH bispecific molecule JL2 x 6H4 (scFv (VL-L-VH)-L-VHH with C-tag) (bispecific antibody)
chain: DIVMTQSPLSLPVTPGEPASISCRSSQSLLHSDGYNYLDWYLQKSGQSPQLLIYLGSYRASGVPDRFSGSGSGTDFTLKISRVEAEDVGIYYCMQVLQTPWTFGQGTKVEIKGGSEGKSSGSGSESKSTGGSEVQLVESGGGLVQPGGSLRLSCVVSGFTFSSYWMTWVRQAPGKGLEWVANIKQDGSERYYVDSVKGRFTISRDSAKNSLYLQMNSLRAEDTAVYYCAREVGYNWNQGGYFDYWGQGTLVTVSSGGGGSEVQLVESGGGLVQAGGSLRLSCAASGRPFSNYGMGWFRQAPGKKREFVAGISWSGGSTDYADSVKGRFTISRDNAKNTVYLQMNSLKPEDTAVYYCAAVFSGAETAYYPSDDYDYWGQGTQVTVSSAAAEPEA

These binders were tested against human CD33 on CD33-expressing THP-1 cells (human, UniProt P20138 18-364) (assay: cell-based or functional assay).
human CD33 on CD33-expressing THP-1 cells, sequence (P20138 18-364): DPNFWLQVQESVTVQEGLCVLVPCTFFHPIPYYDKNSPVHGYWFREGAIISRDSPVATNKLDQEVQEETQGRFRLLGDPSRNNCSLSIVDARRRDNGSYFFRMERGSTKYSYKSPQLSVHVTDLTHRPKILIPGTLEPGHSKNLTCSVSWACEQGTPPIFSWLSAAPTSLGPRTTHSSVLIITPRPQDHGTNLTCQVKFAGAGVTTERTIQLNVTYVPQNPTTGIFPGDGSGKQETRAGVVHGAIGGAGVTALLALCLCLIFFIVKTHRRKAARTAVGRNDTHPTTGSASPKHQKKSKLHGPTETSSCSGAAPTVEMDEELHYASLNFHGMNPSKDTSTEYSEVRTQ

Binder | Cytotox EC50 (nM) Donor 104 [nM] | Cytotox EC50 (nM) Donor 156 [nM]
B1 | 0.0027 | ~0.0019
B2 | 0.0044 | 0.0029
B3 | 0.011 | 0.0098
B4 | ~0.61 | ~0.43
B5 | ~0.00093 | ~0.0007
B6 | ~0.0013 | ~0.0019
B7 | ~0.027 | 0.023
B8 | 0.0012 | 0.0013
B9 | ~0.0013 | ~0.0008
B10 | ~0.0004 | ~0.00035
B11 | ~0.00079 | ~0.00099
B12 | ~0.00097 | ~0.00077
